Square brackets hold non-standard residues; d marks the D form. Ends that are not written are not given here. * marks the point of attachment. Biotin = O=C1N[C@H]2[C@H](CS[C@H]2CCCCC(=O)*)N1; Lys(Me2) = CN(C)CCCC[C@H](N)C(=O)O

These results are taken from patent US20190010196A1 (GOVERNING COUNCIL OF THE UNIVERSITY OF TORONTO, published 2019).

This assay addresses T1, MBP-53BP1-Tudor protein (residues 1484-1603) (UniProt Q12888 1484-1603).
T1 construct: range 1484-1603; also called MBP-Tudor fusion of 53BP1; not shown: MBP fusion partner
Briefly: pulldown competition on MBP-53BP1-Tudor; competitor GST-UbvG08; immunoblot.

T1 sequence (Q12888 1484-1603): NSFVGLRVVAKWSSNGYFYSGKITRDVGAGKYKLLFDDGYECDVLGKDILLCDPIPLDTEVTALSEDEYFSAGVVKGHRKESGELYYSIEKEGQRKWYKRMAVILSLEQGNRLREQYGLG

B1: biotin-labeled peptide derived from histone H4K20me2 (peptide)
peptide: {Biotin-Mini‑PEG}-YGKGGAKRHR[Lys(Me2)]VLRD
notes: Synthetic peptide (BioBasic Canada Inc.); also called H4K20me2 peptide
Broadly, the IC50 is the concentration at which inhibition is half-maximal. The low end stands for inhibition by little substance, the high end for a need for much substance. As for B1, the IC50 was 100 to 300 µM.
